Data reported in patent US20240360228A1 (BIOLEGEND, published 2024).
Changes are numbered by the printed parent chain. Blank lines part the entries; values can stand above or below the binder they belong to.

Experiments:
human CCR8 [1] = biological target: T1, human CCR8 (human, UniProt P51685 1-355); assay: flow blocking, PBMC CCR8+CD4+; competitor PE-AB1
T1 construct: Native CCR8 on human PBMC (CCR8+ CD3+ or CCR8+ CD4+ lymphocytes); also called chemokine (C-C motif) receptor 8
Procedure: (§1) For blocking studies, 100 μL of the cell suspension were incubated with 10 μg purified isotype control, AB1, AB2, AB3, AB4, AB5, AB8, AB9, AB10, AB11, AB12, AB13, AB14, AB15, and Commercial ABI antibodies, or isotype control, as blocking agents.
(§2) After incubation with the blocking agent, the cells were incubated with 0.25 μg of the indicated PE-conjugated antibody plus anti-human CD4 APC or anti-human CD3 for another 15 minutes in the dark and then washed 2 times with Cell Staining Buffer, and acquired in a FACSCanto II flow cytometer (BD Biosciences); the data was analyzed using FCS Express (De Novo Software); MFI correspond to the CCR8+ CD4+ lymphocytes or CCR8+ CD3+ lymphocytes.
(§3) Percentage original MFI was calculated by dividing the MFI of samples blocked with AB1, AB2, AB3, AB4, AB5, AB6, AB7, AB8, AB9, AB10, AB11, AB12, AB13, AB14, AB15, and Commercial ABI antibodies, by the MFI of samples blocked with the corresponding isotype control. This value was subtracted from 100 to get a blocking percentage. The formula is shown below: […]

human CCR8 [2] = biological target: T1, human CCR8; assay: flow blocking, PBMC CCR8+CD4+; competitor PE-AB2
Procedure: as §1, §2, §3

human CCR8 [3] = biological target: T1, human CCR8; assay: flow blocking, PBMC CCR8+CD4+; competitor PE-AB3
Procedure: as §1, §2, §3

human CCR8 [4] = biological target: T1, human CCR8; assay: flow blocking, PBMC CCR8+CD4+; competitor PE-AB4
Procedure: as §1, §2, §3

human CCR8 [5] = biological target: T1, human CCR8; assay: flow blocking, PBMC CCR8+CD4+; competitor PE-AB5
Procedure: as §1, §2, §3

human CCR8 [6] = biological target: T1, human CCR8; assay: flow blocking, PBMC CCR8+CD4+; competitor PE-AB6
Procedure: as §1, §2

human CCR8 [7] = biological target: T1, human CCR8; assay: flow blocking, PBMC CCR8+CD4+; competitor PE-433H
Procedure: as §1, §2

human CCR8 [8] = biological target: T1, human CCR8; assay: flow blocking, PBMC CCR8+CD4+; competitor PE-AB10
Procedure: as §1, §2, §3

human CCR8 [9] = biological target: T1, human CCR8; assay: flow blocking, PBMC CCR8+CD4+; competitor PE-AB11
Procedure: as §1, §2, §3

human CCR8 [10] = biological target: T1, human CCR8; assay: flow blocking, PBMC CCR8+CD4+; competitor PE-AB12
Procedure: as §1, §2, §3

human CCR8 [11] = biological target: T1, human CCR8; assay: flow blocking, PBMC CCR8+CD4+; competitor PE-AB13
Procedure: as §1, §2

human CCR8 [12] = biological target: T1, human CCR8; assay: flow blocking, PBMC CCR8+CD4+; competitor PE-AB14
Procedure: as §1, §2

human CCR8 [13] = biological target: T1, human CCR8; assay: flow blocking, PBMC CCR8+CD4+; competitor PE-AB15
Procedure: as §1, §2, §3

T1 sequence (P51685 whole entry): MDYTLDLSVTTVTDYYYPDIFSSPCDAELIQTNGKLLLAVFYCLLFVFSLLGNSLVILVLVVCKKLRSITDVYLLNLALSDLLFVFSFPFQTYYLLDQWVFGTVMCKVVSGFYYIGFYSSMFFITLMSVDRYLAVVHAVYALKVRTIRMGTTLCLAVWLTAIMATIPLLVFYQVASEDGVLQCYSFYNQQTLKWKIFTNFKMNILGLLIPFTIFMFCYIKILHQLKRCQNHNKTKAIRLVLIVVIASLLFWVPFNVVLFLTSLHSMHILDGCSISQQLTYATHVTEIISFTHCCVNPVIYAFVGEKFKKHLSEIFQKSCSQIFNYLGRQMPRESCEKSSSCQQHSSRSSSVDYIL

- % Blocking (human CCR8 [1]): 100%
- % Positive cells (human CCR8 [1]): 0%
- % Blocking (human CCR8 [2]): 98.8%
- % Positive cells (human CCR8 [2]): 0.02%
- % Blocking (human CCR8 [3]): 98.2%
- % Positive cells (human CCR8 [3]): 0.03%
- % Blocking (human CCR8 [4]): 94.9%
- % Positive cells (human CCR8 [4]): 0.09%
- % Blocking (human CCR8 [5]): 87.1%
- % Positive cells (human CCR8 [5]): 0.26%
- % Blocking (human CCR8 [6]): 87.1%
- % Positive cells (human CCR8 [6]): 0.26%
- % Blocking (human CCR8 [7]): 1.14%
- % Positive cells (human CCR8 [7]): 1.74%
- % Blocking (human CCR8 [8]): 0.68%
- % Positive cells (human CCR8 [8]): 1.47%
- % Blocking (human CCR8 [9]): 4.59%
- % Positive cells (human CCR8 [9]): 1.87%
- % Blocking (human CCR8 [10]): 1.11%
- % Positive cells (human CCR8 [10]): 1.78%
- % Blocking (human CCR8 [11]): 21.7%
- % Positive cells (human CCR8 [11]): 1.55%
- % Blocking (human CCR8 [12]): -15.4%
- % Positive cells (human CCR8 [12]): 1.5%
- % Blocking (human CCR8 [13]): -33.3%
- % Positive cells (human CCR8 [13]): 1.72%
B1: AB4 (antibody, V domains shown)
VH: QVQLKESGPGLVKPSETLSLTCTVSGFSLTGYHVSWVRQPPGKGLEWMGVIWGDGRTTYNSALKSRLSISRDTSKSQVFLKMSSLKTEDTATYYCARGGDSGFAYWGQGTLVTVSS
VL: DIQMTQSPASLSASLEEIVTITCQASQDIGNWLSWYQQKPGKSPQLLIYGATSLADGVPSRFSGSRSGTQFSLKISRLQVEDIGIYYCLQAYIVPLTFGSGTKLESK
notes: Hybridoma monoclonal; also called antibody 4; clone 4

- % Blocking (human CCR8 [1]): -25.2%
- % Positive cells (human CCR8 [1]): 1.94%
- % Blocking (human CCR8 [2]): -10.4%
- % Positive cells (human CCR8 [2]): 1.81%
- % Blocking (human CCR8 [3]): -27.5%
- % Positive cells (human CCR8 [3]): 2.18%
- % Blocking (human CCR8 [4]): -10.1%
- % Positive cells (human CCR8 [4]): 1.96%
- % Blocking (human CCR8 [5]): 6.93%
- % Positive cells (human CCR8 [5]): 1.88%
- % Blocking (human CCR8 [6]): -3.47%
- % Positive cells (human CCR8 [6]): 2.09%
- % Blocking (human CCR8 [7]): 22.7%
- % Positive cells (human CCR8 [7]): 1.36%
- % Blocking (human CCR8 [8]): 96%
- % Positive cells (human CCR8 [8]): 0.06%
- % Blocking (human CCR8 [9]): 98.5%
- % Positive cells (human CCR8 [9]): 0.03%
- % Blocking (human CCR8 [10]): 99.4%
- % Positive cells (human CCR8 [10]): 0.01%
- % Blocking (human CCR8 [11]): 96%
- % Positive cells (human CCR8 [11]): 0.08%
- % Blocking (human CCR8 [12]): 98.5%
- % Positive cells (human CCR8 [12]): 0.02%
- % Blocking (human CCR8 [13]): 97.7%
- % Positive cells (human CCR8 [13]): 0.03%
B2: AB14 (antibody, V domains shown)
VH: EVQLVESGGGLVQPKGSLKLSCAASGFTFNTYAMNWVRQAPGKGLEWVARIRSKSNNYATYYVDSVKDRFTISRDDSQSMLYLQINNLKTEDTAMYYCVRGRELGPYSAMDYWGQGTSVTVSS
VL: DIVMTQAAPSVPVTPGESVSISCRSSKSLLHSNGNTYLYWFLQRPGQSPQLLIYRMSNLASGVPDRFSGSGSGTAFTLRISRVEAEDVGLYYCMQHLEYPFTFGGGTKLEIK
notes: Hybridoma monoclonal; Same VH/VL entries as AB15; also called antibody 14; clone 14

- % Blocking (human CCR8 [1]): -38.7%
- % Positive cells (human CCR8 [1]): 2.15%
- % Blocking (human CCR8 [2]): -28.1%
- % Positive cells (human CCR8 [2]): 2.1%
- % Blocking (human CCR8 [3]): -33.3%
- % Positive cells (human CCR8 [3]): 2.28%
- % Blocking (human CCR8 [4]): -1.69%
- % Positive cells (human CCR8 [4]): 1.81%
- % Blocking (human CCR8 [5]): -17.8%
- % Positive cells (human CCR8 [5]): 2.38%
- % Blocking (human CCR8 [6]): -23.8%
- % Positive cells (human CCR8 [6]): 2.5%
- % Blocking (human CCR8 [7]): 21.6%
- % Positive cells (human CCR8 [7]): 1.38%
- % Blocking (human CCR8 [8]): 93.2%
- % Positive cells (human CCR8 [8]): 0.1%
- % Blocking (human CCR8 [9]): 85.2%
- % Positive cells (human CCR8 [9]): 0.29%
- % Blocking (human CCR8 [10]): 99.4%
- % Positive cells (human CCR8 [10]): 0.01%
- % Blocking (human CCR8 [11]): 91.9%
- % Positive cells (human CCR8 [11]): 0.16%
- % Blocking (human CCR8 [12]): 99.2%
- % Positive cells (human CCR8 [12]): 0.01%
- % Blocking (human CCR8 [13]): 93.8%
- % Positive cells (human CCR8 [13]): 0.08%
B3: AB15 (antibody, V domains shown)
VH: B2 VH
VL: B2 VL
notes: Hybridoma monoclonal; Same VH/VL entries as AB14; also called antibody 15; clone 15

- % Blocking (human CCR8 [1]): -29.7%
- % Positive cells (human CCR8 [1]): 2.01%
- % Blocking (human CCR8 [2]): -32.9%
- % Positive cells (human CCR8 [2]): 2.18%
- % Blocking (human CCR8 [3]): -34.5%
- % Positive cells (human CCR8 [3]): 2.3%
- % Blocking (human CCR8 [4]): -33.1%
- % Positive cells (human CCR8 [4]): 2.37%
- % Blocking (human CCR8 [5]): -2.48%
- % Positive cells (human CCR8 [5]): 2.07%
- % Blocking (human CCR8 [6]): -15.3%
- % Positive cells (human CCR8 [6]): 2.33%
- % Blocking (human CCR8 [7]): 60.2%
- % Positive cells (human CCR8 [7]): 0.7%
- % Blocking (human CCR8 [8]): 87.8%
- % Positive cells (human CCR8 [8]): 0.18%
- % Blocking (human CCR8 [9]): 99%
- % Positive cells (human CCR8 [9]): 0.02%
- % Blocking (human CCR8 [10]): 99.4%
- % Positive cells (human CCR8 [10]): 0.01%
- % Blocking (human CCR8 [11]): 98.5%
- % Positive cells (human CCR8 [11]): 0.03%
- % Blocking (human CCR8 [12]): 100%
- % Positive cells (human CCR8 [12]): 0%
- % Blocking (human CCR8 [13]): 94.6%
- % Positive cells (human CCR8 [13]): 0.07%
B4: AB12 (antibody, V domains shown)
VH: B2 VH with T28A, V48I, I51L, N57F, V63A, I85M, M95V, Y107S, S108Y
VL: B2 VL with L90V, F101Y
notes: Hybridoma monoclonal; also called antibody 12; clone 12
